From PMC9507130

Molecular target: Vin1^1-116-mScI (UniProt P36158)
Experiment: subcellular recruitment assay (fluorescence microscopy, puncta quantification)
Details: vrl1 vin1Δ cells; over-expressed Vrl1(1-703)YPE chimera; pVIN1(1-116)-mScI; n=3, cells/strain/replicate ≥863; parent: est. 0.82; read off a plot

UniProt P36158, sequence (P36158 1-116): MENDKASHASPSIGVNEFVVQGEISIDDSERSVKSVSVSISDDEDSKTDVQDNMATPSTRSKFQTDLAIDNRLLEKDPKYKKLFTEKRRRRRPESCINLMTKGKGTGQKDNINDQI

Row | other: Average Bright Vin1(1-116)-mScI Puncta Per Cell (puncta per cell) | Substance
1 | 0.075 | Vrl1(1-703)^YPE (from UniProt P38815) E504A; E510A; D511A; N546A; E551A
2 | 0.04 | Vrl1(1-703)^YPE (from UniProt P38815) E510R
3 | 0.14 | Vrl1(1-703)^YPE (from UniProt P38815) D511K
